This is an account of results in paper PMC7261417.

The experiment deals with T1, aquaporin-Z, P60844.
T1 chain: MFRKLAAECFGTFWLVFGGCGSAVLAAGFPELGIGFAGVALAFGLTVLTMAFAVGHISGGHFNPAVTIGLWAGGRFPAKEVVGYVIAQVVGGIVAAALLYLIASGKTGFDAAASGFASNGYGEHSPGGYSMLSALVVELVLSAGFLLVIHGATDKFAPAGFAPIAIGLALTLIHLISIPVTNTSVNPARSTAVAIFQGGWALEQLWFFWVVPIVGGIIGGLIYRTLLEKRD
The experiment can be described thus: native MS. The note with it: remark: other sources report otherwise.

B1: aquaporin-Z, P60844 1-231 (natural protein)
chain: MFRKLAAECFGTFWLVFGGCGSAVLAAGFPELGIGFAGVALAFGLTVLTMAFAVGHISGGHFNPAVTIGLWAGGRFPAKEVVGYVIAQVVGGIVAAALLYLIASGKTGFDAAASGFASNGYGEHSPGGYSMLSALVVELVLSAGFLLVIHGATDKFAPAGFAPIAIGLALTLIHLISIPVTNTSVNPARSTAVAIFQGGWALEQLWFFWVVPIVGGIIGGLIYRTLLEKRD
modifications: here or on the partner: multiple N-terminal formylation modifications; multiple N-terminal formylation modifications
In the case of B1, the stoichiometry N (in general, the number of molecules, sites or subunits per partner or assembly) turned out to be 4.
